Article PMC8576529, “Handling Several Sugars at a Time: a Case Study of Xyloglucan Utilization by Ruminiclostridium cellulolyticum” (mBio, 2021)
Like-named read-outs stand apart in the source and are kept apart here.

How the values were obtained:
[1] = target: T1, β-Glucosidase Glu3A; experiment: pNPβGlu hydrolysis, A400; format: biochemical, Ruminiclostridium cellulolyticum; settings: competitive; substrate p-nitrophenyl-β-D-glucoside, 50 mM phosphate pH 7.0, 37°C; read-out: Mean enzyme concn (mM) ± SD^a / β-Glucosidase (Glu3A)
T1 construct: cytosolic enzyme, purified as formerly reported
Excerpt: pNPβGlu hydrolysis, A400 on β-Glucosidase Glu3A

[2] = target: T2, β-Galactosidase Gal42A; experiment: pNPβGal hydrolysis, A400; format: biochemical, Ruminiclostridium cellulolyticum; settings: substrate p-nitrophenyl-β-D-galactoside, 50 mM phosphate pH 7.0, 37°C, read-out: Mean enzyme concn (mM) ± SD^a / β-Galactosidase Gal42A
T2 construct: cytosolic enzyme, purified as formerly reported
Excerpt: pNPβGal hydrolysis, A400 on β-Galactosidase Gal42A

[3] = target: T3, Galactokinase (Ruminiclostridium cellulolyticum, UniProt B8I0X2); experiment: galactose phosphorylation, HPLC-RI; format: biochemical; settings: 5 mM GTP, 25 mM MgCl2, 25 mM HEPES pH 7.0, 37°C; read-out: Substrate(s) (fixed cosubstrate concn)^a
T3 construct: gene galK; C-terminal 6xHis tag (pET28a-3238), E. coli BL21(DE3)
T3 sequence (B8I0X2 1-397): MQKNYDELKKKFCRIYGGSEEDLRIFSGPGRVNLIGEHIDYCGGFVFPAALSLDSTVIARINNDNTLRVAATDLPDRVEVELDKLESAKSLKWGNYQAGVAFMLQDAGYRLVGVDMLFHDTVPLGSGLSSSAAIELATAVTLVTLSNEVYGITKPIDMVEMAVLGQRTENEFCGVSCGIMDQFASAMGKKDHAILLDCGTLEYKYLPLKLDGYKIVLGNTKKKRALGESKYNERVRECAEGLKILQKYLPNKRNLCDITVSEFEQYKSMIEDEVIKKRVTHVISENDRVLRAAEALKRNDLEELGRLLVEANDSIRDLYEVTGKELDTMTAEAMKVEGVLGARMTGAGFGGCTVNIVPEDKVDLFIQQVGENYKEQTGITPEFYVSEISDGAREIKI
Excerpt: (§1) galactose phosphorylation, HPLC-RI on Galactokinase

[4] = target: T4, α-Xylosidase Xyl31A (Ruminiclostridium cellulolyticum, UniProt B8I9A6); experiment: isoprimeverose hydrolysis, HPAEC-PAD; format: biochemical; settings: competitive; substrate isoprimeverose 0.5 to 8 mM, 50 mM phosphate pH 6.0, 37°C; read-out: Mean enzyme concn (mM) ± SD^a / α-Xylosidase (Xyl31A)
T4 construct: gene Ccel_1004; cytosolic enzyme, purified as formerly reported
Excerpt: isoprimeverose hydrolysis, HPAEC-PAD on α-Xylosidase Xyl31A

[5] = target: T5, Cellobiose phosphorylase CbpA (Ruminiclostridium cellulolyticum, UniProt B8I421); experiment: cellobiose phosphorolysis, HPAEC-PAD; format: biochemical; settings: competitive; cellobiose 0.05 to 10 mM varied, 50 mM phosphate, pH 7.0, 37°C; read-out: Inhibitor
T5 construct: gene Ccel_2109; C-terminal 6xHis tag, produced in E. coli, purified to homogeneity
T5 sequence (B8I421 1-811): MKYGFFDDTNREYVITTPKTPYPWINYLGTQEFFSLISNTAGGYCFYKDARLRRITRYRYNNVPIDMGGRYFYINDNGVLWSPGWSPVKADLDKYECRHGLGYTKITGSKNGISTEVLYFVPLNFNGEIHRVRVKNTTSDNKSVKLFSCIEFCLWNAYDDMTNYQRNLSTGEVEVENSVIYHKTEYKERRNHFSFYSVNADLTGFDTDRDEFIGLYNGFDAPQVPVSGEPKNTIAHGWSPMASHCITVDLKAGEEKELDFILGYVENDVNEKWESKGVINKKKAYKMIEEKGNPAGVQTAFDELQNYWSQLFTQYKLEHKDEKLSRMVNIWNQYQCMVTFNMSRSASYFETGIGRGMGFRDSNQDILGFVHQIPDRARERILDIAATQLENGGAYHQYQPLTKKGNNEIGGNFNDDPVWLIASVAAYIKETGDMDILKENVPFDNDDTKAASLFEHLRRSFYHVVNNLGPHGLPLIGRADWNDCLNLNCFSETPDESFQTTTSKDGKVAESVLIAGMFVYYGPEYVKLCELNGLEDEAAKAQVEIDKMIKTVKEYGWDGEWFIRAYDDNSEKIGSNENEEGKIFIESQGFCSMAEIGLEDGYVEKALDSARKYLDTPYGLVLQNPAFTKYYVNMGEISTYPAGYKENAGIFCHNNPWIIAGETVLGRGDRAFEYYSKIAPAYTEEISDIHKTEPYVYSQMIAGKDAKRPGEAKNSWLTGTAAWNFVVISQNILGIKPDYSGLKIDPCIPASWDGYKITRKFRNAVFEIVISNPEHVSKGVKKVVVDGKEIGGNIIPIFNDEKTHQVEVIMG
Excerpt: cellobiose phosphorolysis, HPAEC-PAD on Cellobiose phosphorylase CbpA

[6] = substrate: Nc1ncnc2c1ncn2[C@@H]1O[C@H](COP(=O)(O)OP(=O)(O)OP(=O)(O)O)[C@@H](O)[C@H]1O; experiment: galactose phosphorylation, HPLC-RI; format: biochemical, Ruminiclostridium cellulolyticum; settings: 100 mM galactose, 25 mM MgCl2, 25 mM HEPES pH 7.0, 37°C
Excerpt: as §1

[7] = substrate: Nc1nc2c(ncn2[C@@H]2O[C@H](COP(=O)(O)OP(=O)(O)OP(=O)(O)O)[C@@H](O)[C@H]2O)c(=O)[nH]1; experiment: galactose phosphorylation, HPLC-RI; format: biochemical, Ruminiclostridium cellulolyticum; settings: 100 mM galactose, 25 mM MgCl2, 25 mM HEPES pH 7.0, 37°C
Excerpt: as §1

[8] = substrate: Nc1ncnc2c1ncn2[C@@H]1O[C@H](COP(=O)(O)OP(=O)(O)OP(=O)(O)O)[C@@H](O)[C@H]1O; experiment: purified protein; format: biochemical, Ruminiclostridium cellulolyticum; settings: 5 mM glucose, 25 mM MgCl2, 25 mM HEPES pH 7.0, 37°C, ATP tested only up to 20 mM (below Km)
Excerpt: (§2) glucose phosphorylation, HPLC-RI on Hexokinase

[9] = substrate: Nc1nc2c(ncn2[C@@H]2O[C@H](COP(=O)(O)OP(=O)(O)OP(=O)(O)O)[C@@H](O)[C@H]2O)c(=O)[nH]1; experiment: purified protein; format: biochemical, Ruminiclostridium cellulolyticum; settings: 5 mM glucose, 25 mM MgCl2, 25 mM HEPES pH 7.0, 37°C
Excerpt: as §2

[10] = substrate: O=P(O)(O)O[C@H]1O[C@H](CO)[C@@H](O)[C@H](O)[C@H]1O; experiment: isomerization, HPAEC-PAD; format: biochemical, Ruminiclostridium cellulolyticum; settings: 25 mM HEPES pH 7.0, 37°C
Excerpt: isomerization, HPAEC-PAD on α-Phosphoglucomutase

[11] = substrate: O=C(CO)[C@@H](O)[C@H](O)CO; experiment: isomerization, HPLC-RI; format: biochemical, Ruminiclostridium cellulolyticum; settings: 10 mM MgCl2, 25 mM HEPES pH 7.0, 37°C
Excerpt: isomerization, HPLC-RI on Xylose isomerase

T4 sequence (B8I9A6 entry or part of it): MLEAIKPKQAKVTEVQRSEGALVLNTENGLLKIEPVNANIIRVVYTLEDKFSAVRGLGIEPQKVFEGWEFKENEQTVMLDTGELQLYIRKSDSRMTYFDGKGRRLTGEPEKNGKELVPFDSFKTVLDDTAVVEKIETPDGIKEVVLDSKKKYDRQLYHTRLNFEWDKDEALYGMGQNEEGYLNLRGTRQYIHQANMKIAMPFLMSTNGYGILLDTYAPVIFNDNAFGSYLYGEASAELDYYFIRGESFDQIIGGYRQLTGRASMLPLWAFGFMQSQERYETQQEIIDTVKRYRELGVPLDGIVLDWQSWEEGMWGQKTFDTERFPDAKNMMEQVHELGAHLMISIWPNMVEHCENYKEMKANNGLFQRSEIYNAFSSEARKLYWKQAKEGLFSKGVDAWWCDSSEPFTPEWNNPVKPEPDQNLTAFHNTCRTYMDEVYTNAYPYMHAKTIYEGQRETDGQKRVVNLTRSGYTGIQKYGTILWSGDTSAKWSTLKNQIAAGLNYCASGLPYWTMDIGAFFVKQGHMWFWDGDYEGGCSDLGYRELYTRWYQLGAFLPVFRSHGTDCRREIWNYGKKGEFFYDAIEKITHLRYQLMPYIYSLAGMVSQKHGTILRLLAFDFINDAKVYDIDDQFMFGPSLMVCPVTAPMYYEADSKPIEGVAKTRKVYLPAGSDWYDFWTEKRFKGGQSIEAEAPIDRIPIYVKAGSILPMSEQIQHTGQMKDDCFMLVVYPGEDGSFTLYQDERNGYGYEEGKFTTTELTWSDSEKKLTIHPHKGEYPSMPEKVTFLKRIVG

Q: What does the source list for `OC[C@H]1O[C@@H](O[C@H]2[C@H](O)[C@@H](O)C(O)O[C@@H]2CO)[C@H](O)[C@@H](O)[C@@H]1O` (stereo partly shown) [Cellobiose]?
A: Ki [1]: 36.3 ± 5.57 mM; Ki ([2]; noncompetitive): 19.3 ± 1.41 mM

Q: Which results are given for `OC[C@H]1OC(O)[C@H](O)[C@@H](O)[C@H]1O` (stereo partly shown) [Galactose]?
A: Km [3]: 15.5 ± 1.8 mM; Ki ([2]; competitive): 2.35 ± 0.05 mM

Q: Which results are given for `OC[C@H]1OC(O)[C@H](O)[C@@H](O)[C@@H]1O` (stereo partly shown) [Glucose]?
A: Ki [4]: 1.83 ± 0.42 mM; Ki [5]: 0.68 ± 0.04 mM; Ki [1]: 3.99 ± 0.33 mM

B1: Galactokinase (Ruminiclostridium cellulolyticum H10) (protein)
chain: T3 sequence (B8I0X2 1-397)
notes: C-terminal 6xHis tag (pET28a-3238), E. coli BL21(DE3)
Q: Which Km [6] does the source give for B1 here?
A: Its Km is 13.71 ± 2.42 mM.

Q: What about the kcat [6] of the same molecule?
A: The kcat was 4,853 ± 419 IU μmol^−1.

Q: And the Km [7]?
A: The Km was 0.99 ± 0.13 mM.

Q: What about the kcat [7] of the same molecule?
A: Its kcat is 1,704 ± 75 IU μmol^−1.

B2: Hexokinase (Ruminiclostridium cellulolyticum H10) (protein)
chain: MGSKLEIVQDVINAFEVNKESMLRTAMLFKETMEKSLNGEKTCLKMLPSYIGKPTGKEQGTFMTIDMGGTNFRCTKYKINNGNFEKVGEIKQKLINKEKNYDLTKSDSDEKQLFGFMAECIGELLEPEESLYLGNTFSFPCRQEGINDAYLIQWTKEITTSGVVGQNINKLLEQSLKEKNINVKPVAILNDTVGTLLVAMYSYQTADIGSIMGTGHNTCYLENNHPLNGQKMIVNIESGNYNVGLPVTKYDEIIDKNSQIPGAQLLEKMVSGYYMGSLLKEVCKDLYKNNALFTNEDVDIDAFFNQNFNALMVENFILYPSNTKEQYKCSIEDAEIVKRVSEAILKRTVRLVAVSHMGILFHQENSGTSVNNEHVIAIDGTIYEKMPNAPQLMKEAFREALGDDASNIEIRLVKDGSGLGAAIAAAFAVTQ
notes: C-terminal 6xHis tag (pET28a-3221), E. coli BL21(DE3)
Q: What does the source list for B2?
A: Km [8]: 32.2 ± 7.4 mM; kcat [8]: 8,781 ± 1,418 IU μmol^−1; Km [9]: 0.40 ± 0.07 mM; kcat [9]: 11,160 ± 543 IU μmol^−1

B3: α-Phosphoglucomutase (Ruminiclostridium cellulolyticum H10) (protein)
chain: MEYLSKLNFWLDNEYFDQDTKNELLSIKNNAKEVEDRFYKSLEFGTGGLRGIIGAGTNRINIYTVRVASQGLANYINQMGKQDKGIVIAYDPRFMSPEFSLEAAKVFCANGIKAYLFDELRPTPQLSFAVRYLKAAAGVVVTASHNPKQYNGYKVYGEDGGQLSIDGSNAVISEINKITDITKVNIISKEDAASKGLLQIIGSEIDDAYIEMLKKLRINKDAVSKVADTFKIVYTPLHGAGNKPVRRILAESGFKEVLVVKEQELPDSQFSTVKSPNPEERSAFELAIKLASDNNVDLIIGTDPDSDRVGVVVRKNDGEYAVLTGNQTGCLLLEYILTAMKEEGKLPANGFVVKTIVTTELARIIADFYNVELVEVLTGFKFIGEQIKLRDENGNQKYLFGFEESYGYLAGTDVRDKDAVVASMLVAEMAAYYKVKGISLYDALTNLYEKYGYFVEGISSFTLEGKDGVMKIKEALTTMRKTKYESFGGIKVKAIRDYQKSERHVIASGATEKITLPESDVLYFEMEDGSWFCVRPSGTEPKIKIYYGVSDRTLNLSQDKLEKFKAGVLDVIKPLL
notes: C-terminal 6xHis tag (pET28a-1417), E. coli BL21(DE3)
Q: How did the Km [10] turn out when B3 was run?
A: The Km was 0.155 ± 0.055 mM.

Q: What about the kcat [10] of the same molecule?
A: The kcat was 1,768 ± 19 IU μmol^−1.

B4: Xylose isomerase (Ruminiclostridium cellulolyticum H10) (protein)
chain: MSEVFSGISNIKFEGSGSDNPLAFKYYDPKAVIGGKTMEEHLRFAVAYWHTFAAPGADMFGAGSYVRPWNTMSDPLEIAKYKVEANFEFIEKLGAPFFAFHDRDIAPEGDTLAETNKNLDTIVSVIKDRMKSSPVKLLWGTTNAFGNPRFMHGASTSPNADIFAYAAAQVKKAMEITKELGGENYVFWGGREGYETLLNTDMKLELDNLARFLKMAVDYAKEIGFDGQFLIEPKPKEPTKHQYDFDTATVIGFLKTYGLDPYFKMNIEANHATLAGHTFQHELAMCRINDMLGSIDANQGDVMLGWDTDQFPTNLYDATLAMVEVLKAGGLKKGGLNFDSKVRRGSFEPSDLFYGHIAGMDTFAKGLIIANKIVEDGKFDAFVADRYSSYTNGIGKDIVEGKVGFKELEQYALTAKIQNKSGRQEMLEALLNQYILETK
notes: C-terminal 6xHis tag (plasmid printed as pET28a-3439), E. coli BL21(DE3)
Q: With B4 as the molecule, how does the Km [11] read?
A: Its Km is 2.0 ± 0.2 mM.

Q: What about the kcat [11] of the same molecule?
A: Its kcat is 63.5 ± 1.8 IU μmol^−1.
